Test [1] addresses T1, Human DLAT recombinant protein (ProSpec, Catalog # ENZ-082) (human, UniProt P10515 87-647, limits assumed).
T1 construct: also called DLAT antigen; Dihydrolipoamide Acetyltransferase
T1 sequence (looked up): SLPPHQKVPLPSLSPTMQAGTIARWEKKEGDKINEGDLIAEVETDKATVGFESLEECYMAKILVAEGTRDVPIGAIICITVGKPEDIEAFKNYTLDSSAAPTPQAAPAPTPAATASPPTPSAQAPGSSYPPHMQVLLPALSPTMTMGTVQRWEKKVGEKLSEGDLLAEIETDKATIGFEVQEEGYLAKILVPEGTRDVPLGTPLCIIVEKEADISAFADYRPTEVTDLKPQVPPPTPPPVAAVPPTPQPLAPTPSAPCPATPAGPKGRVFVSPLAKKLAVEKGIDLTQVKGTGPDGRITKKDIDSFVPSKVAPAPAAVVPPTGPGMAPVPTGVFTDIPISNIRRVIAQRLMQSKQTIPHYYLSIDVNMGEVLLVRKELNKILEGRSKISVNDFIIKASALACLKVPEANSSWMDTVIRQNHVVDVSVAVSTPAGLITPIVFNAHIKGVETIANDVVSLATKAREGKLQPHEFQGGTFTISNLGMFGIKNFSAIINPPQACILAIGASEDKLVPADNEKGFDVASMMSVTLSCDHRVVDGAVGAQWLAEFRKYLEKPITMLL
Kind of test: BIAcore, AntiFc_TPP992_DLAT, kinetics from single concentration curve (12.5nM DLAT). Background: SPR reads the build-up and loss of mass on a sensor chip optically.

In test [2] the target is T2, Programmed Death 1 (PD-1) Fc chimera (R&D Systems, Catalog # 1086-PD-050) (human, UniProt Q15116 25-167).
T2 construct: Bought reagent; not shown: Fc part of the bought chimera (captured by anti-human Fc tips)
T2 sequence (Q15116 25-167, change not shown): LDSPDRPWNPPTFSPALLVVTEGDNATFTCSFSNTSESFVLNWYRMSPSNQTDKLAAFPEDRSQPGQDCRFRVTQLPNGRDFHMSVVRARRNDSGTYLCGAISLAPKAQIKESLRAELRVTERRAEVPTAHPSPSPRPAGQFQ
Kind of test: BLI (Octet Red), TPP-992 loaded on anti-human IgG Fc tips, DLAT 10 µg/mL bound first, then PD-1 Fc 12.5 µg/mL. On the procedure: (§1) Antibodies and antibody fusions were diluted to 16 μg/mL in PBS and loaded onto anti-human IgG Fc tips (ForteBio, Catalog # 18-5064). Human DLAT recombinant protein (ProSpec, Catalog # ENZ-082) was diluted into PBS to 10 μg/mL. […] Finally, a dissociation step in PBS was performed to determine dissociation from the bound antibodies.
On the technique in general: In BLI a coated tip is dipped into the sample, and binding shifts an interference pattern.

The target in test [3] is T1, Human DLAT recombinant protein …. In words: BIAcore kinetics, antibody captured on anti-mouse surface, DLAT (Prospec) as analyte.
Test [4] deals with T2, Programmed Death 1 (PD-1) Fc chimera …. Kind of test: BLI (Octet), PD-1 Fc captured on anti-human Fc tips, TPP-994 at 10 µg/mL in PBS as analyte. On the procedure: (§2) Final dissociation in PBS was performed in the last step on the Bio-Layer Interferometry (BLI) data.
For test [5] the target is unchanged. Kind of test: BLI (Octet), PD-1 Fc captured on anti-human Fc tips, TPP-995 at 10 µg/mL in PBS as analyte. On the procedure:
as §2

Test [6] shares this target. In words: BLI (Octet Red), TPP-986 loaded on anti-human IgG Fc tips, DLAT 10 µg/mL bound first, then PD-1 Fc 12.5 µg/mL. The procedure:
as §1

B1: TPP-992, human IgG2/4 PD5 antibody, N-terminus PD-L1 LC (antibody)
heavy: QLQLQESGPGLVKPSETLSLTCIVSGGSISRNSYYWGWIRQPPGKGLEWIGSIVYSGSTYHQPSLKSRVTIFLDTSKNQFFLKLTSVTAADTAVYYCARGTRATTWPPPIGYWGQGTLVTVSSASTKGPSVFPLAPCSRSTSESTAALGCLVKDYFPEPVTVSWNSGALTSGVHTFPAVLQSSGLYSLSSVVTVPSSNFGTQTYTCNVDHKPSNTKVDKTVERKCCVECPPCPAPPVAGPSVFLFPPKPKDTLMISRTPEVTCVVVDVSQEDPEVQFNWYVDGVEVHNAKTKPREEQFNSTYRVVSVLTVLHQDWLNGKEYKCKVSNKGLPSSIEKTISKAKGQPREPQVYTLPPSQEEMTKNQVSLTCLVKGFYPSDIAVEWESNGQPENNYKTTPPVLDSDGSFFLYSRLTVDKSRWQEGNVFSCSVMHEALHNHYTQKSLSLSLGK
light: FTVTVPKDLYVVEYGSNMTIECKFPVEKQLDLAALIVYWEMEDKNIIQFVHGEEDLKVQHSSYRQRARLLKDQLSLGNAALQITDVKLQDAGVYRCMISYGGADYKRITVKVNAGGSSRSSSSGGGGSGGGGQSVLTQPPSVSAAPGQKVTVSCFGSSSNIGNYFASWYQQLPGAAPRLLIYGNNERPSGIPDRFSGSKSGTSATLVITGLQTGDEAAYYCATWDSSLSAVVFGGGTKLTVLGQPKANPTVTLFPPSSEELQANKATLVCLISDFYPGAVTVAWKADGSPVKAGVETTKPSKQSNNKYAASSYLSLTPEQWKSHRSYSCQVTHEGSTVEKTVAPTECS
notes: Antibody fused with the human PD-L1 variable-like domain
Regarding B1, in test [1], the Kd is 184 pM, the koff is 0.000238 s⁻¹ and the kon was found to be 1.29e+06 M⁻¹ s⁻¹. Also, in test [2], the binding result is on record as “binds”.

B2: TPP-1003 (mIgG1 PD2 Ab) (antibody, V domains shown)
VH: EVQLVESGGGLVKPGGSLRLSCAASGFTFGSYSMTWVRQAPGKGLEWVSFISTVSTYIYYPDSVKGRFTISRDNAKNSLYLQMNSLRAEDTAVYYCARVSGRGSAARDGEKGTYYYYMDVWGKGTTVTVSS
VL: SSELTQDPAVSVALGQTVTITCQGDSLRSYYASWYQQKPGQAPVLVIFGKNNRPSGIPDRFSGSRSGNTASLTITGAQAEDEADYFCDSRDSSANHWVFGGGTKLTVLQ
notes: also called mouse IgG1 chimera anti-DLAT antibody PD2
B2: in test [3], the Kd amounted to 242 pM, the koff turned out to be 4.68e-05 s⁻¹ and the kon was found to be 193000 M⁻¹ s⁻¹.

B3: TPP-1004 (mIgG1 PD5 Ab) (antibody)
heavy: QLQLQESGPGLVKPSETLSLTCIVSGGSISRNSYYWGWIRQPPGKGLEWIGSIVYSGSTYHQPSLKSRVTIFLDTSKNQFFLKLTSVTAADTAVYYCARGTRATTWPPPIGYWGQGTLVTVSSAKTTPPSVYPLAPGSAAQTNSMVTLGCLVKGYFPEPVTVTWNSGSLSSGVHTFPAVLQSDLYTLSSSVTVPSSTWPSQTVTCNVAHPASSTKVDKKIVPRDCGCKPCICTVPEVSSVFIFPPKPKDVLTITLTPKVTCVVVDISKDDPEVQFSWFVDDVEVHTAQTKPREEQINSTFRSVSELPIMHQDWLNGKEFKCRVNSAAFPAPIEKTISKTKGRPKAPQVYTIPPPKEQMAKDKVSLTCMITNFFPEDITVEWQWNGQPAENYKNTQPIMDTDGSYFVYSKLNVQKSNWEAGNTFTCSVLHEGLHNHHTEKSLSHSPGK
light: QSVLTQPPSVSAAPGQKVTVSCFGSSSNIGNYFASWYQQLPGAAPRLLIYGNNERPSGIPDRFSGSKSGTSATLVITGLQTGDEAAYYCATWDSSLSAVVFGGGTKLTVLGQPRADAAPTVSIFPPSSEQLTSGGASVVCFLNNFYPKDINVKWKIDGSERQNGVLNSWTDQDSKDSTYSMSSTLTLTKDEYERHNSYTCEATHKTSTSPIVKSFNRNEC
notes: also called murine IgG1 PD5; Mouse PD5
As to B3, in test [3], the Kd worked out at 526 pM, the koff worked out at 1.94e-05 s⁻¹ and the kon was determined as 36900 M⁻¹ s⁻¹.

B4: TPP-1005 (mIgG1 DWZ Ab) (antibody, V domains shown)
VH: EVQLLESGGDVVQPGGSLRLSCVASGFTLTNYVTAWVRRRPGKGLEWISGMTHGAVATYYSDSVRGRFSSSRDTSRSTLYLQMNDLTVEDTAIYYCAKSLHRSGTSLSYWGQGTLVTVSS
VL: QSVLTQPPSASGTPGQNINISCSGTTSNIGGSNVDWYQHVPGTAPKLFIHSNNQRPSGVPARFSASKSGTSASLAISGLQSEDEADYYCATWDVRLLAYVFGSATEVTVLR
notes: also called murine IgG1 DWZ
Consider B4, for which, in test [3], the Kd was 1720 pM, the koff is 0.000149 s⁻¹ and the kon is 86300 M⁻¹ s⁻¹.

B5: TPP-994 (PD2 with PD-L1 fused to the C-terminus of the heavy chain) (Fab)
heavy: EVQLVESGGGLVKPGGSLRLSCAASGFTFGSYSMTWVRQAPGKGLEWVSFISTVSTYIYYPDSVKGRFTISRDNAKNSLYLQMNSLRAEDTAVYYCARVSGRGSAARDGEKGTYYYYMDVWGKGTTVTVSSASTKGPSVFPLAPSSKSTSGGTAALGCLVKDYFPEPVTVSWNSGALTSGVHTFPAVLQSSGLYSLSSVVTVPSSSLGTQTYICNVNHKPSNTKVDKRVEPKSCGGSSRSSSSGGGGSGGGGFTVTVPKDLYVVEYGSNMTIECKFPVEKQLDLAALIVYWEMEDKNIIQFVHGEEDLKVQHSSYRQRARLLKDQLSLGNAALQITDVKLQDAGVYRCMISYGGADYKRITVKVNA
light: SSELTQDPAVSVALGQTVTITCQGDSLRSYYASWYQQKPGQAPVLVIFGKNNRPSGIPDRFSGSRSGNTASLTITGAQAEDEADYFCDSRDSSANHWVFGGGTKLTVLQPKAAPSVTLFPPSSEELQANKATLVCLISDFYPGAVTVAWKADSSPVKAGVETTTPSKQSNNKYAASSYLSLTPEQWKSHKSYSCQVTHEGSTVEKTVAPTECS
notes: Fab fusion with the human PD-L1 variable-like domain
B5: the binding result in test [4] is listed as “binds”.

B6: TPP-995 (PD2 with PD-L1 fused to the N-terminus of the heavy chain) (Fab)
heavy: FTVTVPKDLYVVEYGSNMTIECKFPVEKQLDLAALIVYWEMEDKNIIQFVHGEEDLKVQHSSYRQRARLLKDQLSLGNAALQITDVKLQDAGVYRCMISYGGADYKRITVKVNAGGSSRSSSSGGGGSGGGGEVQLVESGGGLVKPGGSLRLSCAASGFTFGSYSMTWVRQAPGKGLEWVSFISTVSTYIYYPDSVKGRFTISRDNAKNSLYLQMNSLRAEDTAVYYCARVSGRGSAARDGEKGTYYYYMDVWGKGTTVTVSSASTKGPSVFPLAPSSKSTSGGTAALGCLVKDYFPEPVTVSWNSGALTSGVHTFPAVLQSSGLYSLSSVVTVPSSSLGTQTYICNVNHKPSNTKVDKRVEPKSC
light: B5 light
notes: as for B5
As for B6, in test [5], the binding result is recorded as “binds”.

B7: TPP-986, human IgG2/4 PD5 antibody, N-terminus PD-L1 HC (antibody)
heavy: FTVTVPKDLYVVEYGSNMTIECKFPVEKQLDLAALIVYWEMEDKNIIQFVHGEEDLKVQHSSYRQRARLLKDQLSLGNAALQITDVKLQDAGVYRCMISYGGADYKRITVKVNAGGSSRSSSSGGGGSGGGGQLQLQESGPGLVKPSETLSLTCIVSGGSISRNSYYWGWIRQPPGKGLEWIGSIVYSGSTYHQPSLKSRVTIFLDTSKNQFFLKLTSVTAADTAVYYCARGTRATTWPPPIGYWGQGTLVTVSSASTKGPSVFPLAPCSRSTSESTAALGCLVKDYFPEPVTVSWNSGALTSGVHTFPAVLQSSGLYSLSSVVTVPSSNFGTQTYTCNVDHKPSNTKVDKTVERKCCVECPPCPAPPVAGPSVFLFPPKPKDTLMISRTPEVTCVVVDVSQEDPEVQFNWYVDGVEVHNAKTKPREEQFNSTYRVVSVLTVLHQDWLNGKEYKCKVSNKGLPSSIEKTISKAKGQPREPQVYTLPPSQEEMTKNQVSLTCLVKGFYPSDIAVEWESNGQPENNYKTTPPVLDSDGSFFLYSRLTVDKSRWQEGNVFSCSVMHEALHNHYTQKSLSLSLGK
light: QSVLTQPPSVSAAPGQKVTVSCFGSSSNIGNYFASWYQQLPGAAPRLLIYGNNERPSGIPDRFSGSKSGTSATLVITGLQTGDEAAYYCATWDSSLSAVVFGGGTKLTVLGQPKANPTVTLFPPSSEELQANKATLVCLISDFYPGAVTVAWKADGSPVKAGVETTKPSKQSNNKYAASSYLSLTPEQWKSHRSYSCQVTHEGSTVEKTVAPTECS
notes: as for B1
Turning to B7, in test [6], the binding result is “binds”.

A word on the Kd: it is the free concentration of one partner at which half of the binding sites on the other are occupied at equilibrium, for simple one-to-one binding. A word on the koff: it is the first-order rate constant of dissociation. What is called kon is the rate constant with which the complex forms.
